Test results published in article PMC2720833 (Journal of molecular biology, 2009).

Legend:
Test in all cases: ITC
[1] = molecular target: SOCS3 box/elonginBC ternary complex (murine | human | mouse, UniProt Q15370 1-118; P83940 17-112)
[2] = molecular target: SOCS1 box/elonginBC ternary complex (murine | human | mouse, UniProt Q15370 1-118; P83940 17-112)
[3] = molecular target: SOCS2 box/elonginBC ternary complex (murine | human | mouse, UniProt Q15370 1-118; P83940 17-112)
[4] = molecular target: SOCS4 box/elonginBC ternary complex (murine | human | mouse, UniProt Q15370 1-118; P83940 17-112)
[5] = molecular target: SOCS5 box/elonginBC ternary complex (murine | human | mouse, UniProt Q15370 1-118; P83940 17-112)
[6] = molecular target: SOCS6 box/elonginBC ternary complex (murine | human | mouse, UniProt Q15370 1-118; P83940 17-112)
[7] = molecular target: SOCS7 box/elonginBC ternary complex (murine | human | mouse, UniProt Q15370 1-118; P83940 17-112)
[8] = molecular target: CIS box/elonginBC ternary complex (murine | human | mouse, UniProt Q15370 1-118; P83940 17-112)

- stoichiometry N [1]: ~1
- Kd [2]: 1000 nM
- stoichiometry N [2]: ~1
- Kd [3]: ~10 nM
- stoichiometry N [3]: ~1
- Kd [4]: ~10 nM
- stoichiometry N [4]: ~1
- Kd [5]: ~10 nM
- stoichiometry N [5]: ~1
- Kd [6]: ~10 nM
- stoichiometry N [6]: ~1
- Kd [7]: ~10 nM
- stoichiometry N [7]: ~1
- Kd [8]: ~10 nM
- stoichiometry N [8]: ~1
B1: GST-Cullin5 (NTD), N-terminal domain of murine cullin5 (Met1-Leu385) with V341R and L345D (domain or fragment)
chain: MATSNLLKNKGSLQFEDKWDFMHPIVLKLLRQESVTKQQWFDLFSDVHAVCLWDDKGSSKIHQALKEDILEFIKQAQARVLSHQDDTALLKAYIVEWRKFFTQCDILPKPFCQLEVTLLGKQSSNKKSNMEDSIVRKLMLDTWNESIFSNIKNRLQDSAMKLVHAERLGEAFDSQLVIGVRESYVNLCSNPEDKLQIYRDNFEKAYLDSTERFYRTQAPSYLQQNGVQNYMKYADAKLKEEEKRALRYLETRRECNSVEALMECCVNALVTSFKETILAECQGMIKRNETEKLHLMFSLMDKVPNGIEPMLKDLEEHIISAGLADMVAAAETITTDSEKYREQLDTLFNRFSKLVKEAFQDDPRFLTARDKAYKAVVNDATIFKL
